According to patent publication US20240299546A1:

Legend:
[1] = target: HLA-A1-MAGE-A3 pMHC (human); experiment: SPR, biotinylated HLA-A1-MAGE-A3 on streptavidin chip, soluble TCR flowed
[2] = target: HLA-A1-TITIN pMHC (human); experiment: SPR, biotinylated HLA-A1-TITIN on streptavidin chip, soluble TCR flowed

B1: A3A TCR (TCR, V domains shown)
V domain 1: KQEVTQIPAALSVPEGENLVLNCSFTDSAIYNLQWFRQDPGKGLTSLLLVRPYQREQTSGRLNASLDKSSGRSTLYIAASQPGDSATYLCAVRPGGAGSYQLTFGKGTKLSVIP
V domain 2: KAGVTQTPRYLIKTRGQQVTLSCSPISGHRSVSWYQQTPGQGLQFLFEYFSETQRNKGNFPGRFSGRQFSNSRSEMNVSTLELGDSALYLCASSPNMADEQYFGPGTRLTVTE
Work on B1 yielded a Kd [1] of 1.24 µM and a Kd [2] of 7.7 µM.
